Our source for the self-cleavage values is the RNAGym collection of RNA variant scans (doi:10.7554/elife.80360).

The labels stand for the following.
B1: HDV Ribozyme (parent)
chain: GGCCGGCAUGGUCCCAGCCUCCUCGCUGGCGCCGGCUGGGCAACAUUCCGAGGGGACCGUCCCCUCGGUAAUGGCGAAUGGGACCCA

In this data set the parent is B1. Nature of the data set: self-cleavage, relative activity (ratio to wild type); higher = more cleavage; co-transcriptional.
With G54C C58U, the self-cleavage turned out to be 1.11.

As to C19G G80A, the self-cleavage is 0.131.

Regarding C3G A8G, the self-cleavage came to 0.767. C24G C57G: the self-cleavage worked out at 0.192.

In the case of G31A A78G, the self-cleavage was 0.0978.

For U27A A78G, the self-cleavage came to 0.249. As for G28C G38U, the self-cleavage came to 0.162.

On to C13A G59C, for which the self-cleavage turned out to be 0.237. C21G G52A: the self-cleavage was found to be 0.0287.

As to C30A G38A, the self-cleavage was 0.219. On to C61U C86A, for which the self-cleavage was found to be 0.812. Turning to A8U A83G, the self-cleavage amounted to 0.746. Take C3U G39U: the self-cleavage is 0.385. As to A51G U72C, the self-cleavage worked out at 0.864. C4A U20A: the self-cleavage was found to be 0.0386.

As to G6C U9A, the self-cleavage worked out at 0.256. C48G U72A: the self-cleavage worked out at 0.718.

In the case of G31U G34C, the self-cleavage is 0.117. Under C44U A56C stands 1.04. With C13G U46C the figure was 0.18; with G11A C57U, 0.256; with A70U G80U, 0.222. On to C84G A87C, for which the self-cleavage came out at 0.409.

In the case of U46A C86U, the self-cleavage amounted to 0.594. With G29U U60A the figure was 0.248; with A42G C66A, 0.702; with C19G C75A, 0.0773.

For the variant G34A G74U, the self-cleavage is 0.0875. Regarding G39U C48G, the self-cleavage was determined as 0.862. For G39U C48A, the self-cleavage was 0.658. Under C26U U79G stands 1.03.

For the variant G10A C57G, the self-cleavage is 0.912.

Take C22U G82U: the self-cleavage worked out at 0.23. With C24G G35U, the self-cleavage amounted to 0. C49U A83U: the self-cleavage is 0.391. G52C C66A: the self-cleavage turned out to be 1.03. With A16G C32A, the self-cleavage came to 0.107.

For C13A G29C, the self-cleavage amounted to 0. C64G G67A: the self-cleavage worked out at 0.356. With U27C G76C the figure was 1.21; with C14U G52U, 1.04; with U65A A78C, 0.259.

Consider C64A G73U, for which the self-cleavage is 0.332. C22A G54A: the self-cleavage stood at 0.197. For G1A A45U, the self-cleavage stood at 0.208. Take C15A G80A: the self-cleavage came out at 0.831. C19G C44U: the self-cleavage was determined as 0.0563. Under G5U U27G stands 0.665; under C66U A78C, 0.178; under G6A A78G, 0.554. For A78C G82C, the self-cleavage came out at 0.0831. As for C7U G53U, the self-cleavage came to 1.09. Take A56C C85G: the self-cleavage was 1.04. Take U46C G80A: the self-cleavage came out at 0.185. On to A8G G76A, for which the self-cleavage stood at 1.09. With G1C U37A the figure was 0; with G29A U60A, 0.101; with A71U G80U, 0.21. In the case of C62A C75G, the self-cleavage was determined as 0.0519. For G40U A87G, the self-cleavage was determined as 0.578. Take C24G U79G: the self-cleavage amounted to 0. Turning to C32G G50U, the self-cleavage came out at 0.0268. As for C61A A83G, the self-cleavage came to 0.997.

Consider G2A A56U, for which the self-cleavage came to 0.115. As to C15G G35C, the self-cleavage was 0.0791. Under G40C G73C stands 0.185. Take U37G A42U: the self-cleavage worked out at 0. With G31C A43U, the self-cleavage worked out at 0.135.

On to U27C C36G, for which the self-cleavage is 0.185. For the variant C33U G73A, the self-cleavage was determined as 0.554. With G6U G68U, the self-cleavage came out at 0.554.

As for C61U A78G, the self-cleavage turned out to be 0.87.

As to C18A A78U, the self-cleavage came out at 0.128. Under G35U C36G stands 0.104; under G34C G39C, 0.0554; under C21A C62A, 0.185. With A42G G53C, the self-cleavage was 0.391. For U46G C61A, the self-cleavage is 0.617. For G67U A77C, the self-cleavage is 0.373.

Take C22U G67C: the self-cleavage amounted to 0.535. Under G67C U72G stands 0.231; under G5C G74C, 0.0978; under G31C C63A, 0.344. Consider A42C C85G, for which the self-cleavage amounted to 0.469. As to C3G U79A, the self-cleavage was determined as 0.491. For the variant C41G G50A, the self-cleavage stood at 0.911. With A43G C58G the figure was 0.72. As for C32U U47G, the self-cleavage was 1.03. With C21U A51C the figure was 0.332; with C33U C62U, 0.816; with C64G A71U, 0.863. On to G39A A45G, for which the self-cleavage is 0.629. On to G6A U37C, for which the self-cleavage was 0.853. On to G55C C75A, for which the self-cleavage is 0.148. Regarding C62A C86G, the self-cleavage stood at 0.975. With C33U G35A, the self-cleavage is 0.205. As to C13U A45C, the self-cleavage is 0.365.

Regarding U23C C24G, the self-cleavage was determined as 0.0437.

On to C66G A83U, for which the self-cleavage was 0.415.

For the variant G31C C49U, the self-cleavage was determined as 0.339. Turning to G6U A56U, the self-cleavage amounted to 0.703. Take U72G G74C: the self-cleavage is 0.237. C13U C75A: the self-cleavage is 0.148.

In the case of G1A A42C, the self-cleavage is 0.0369. With C13G G80A, the self-cleavage was 0. For the variant U46A G55U, the self-cleavage amounted to 0.85. For the variant C33U A42U, the self-cleavage worked out at 0.345. Regarding A8G G73U, the self-cleavage turned out to be 0.148.

Take G39U G76C: the self-cleavage was determined as 0.724. As for G52A U60C, the self-cleavage worked out at 1.08. For G53U C64U, the self-cleavage is 0.853. Take G2A G28C: the self-cleavage stood at 0.0415. Under U72C C85U stands 0.511; under C15U C49U, 0.997; under C18U A42C, 0.185. With G11C A87U the figure was 0.453; with A8C G55A, 0.636.

Consider U12A C58A, for which the self-cleavage was found to be 0.312. Take G31A G81A: the self-cleavage amounted to 0.14. For the variant G6U C58A, the self-cleavage was 0.672. In the case of G31C G74A, the self-cleavage was determined as 0.0573.

In the case of G28U A78G, the self-cleavage was 0.158.

As for C14U U72G, the self-cleavage came to 0.598. In the case of U23C U69G, the self-cleavage was determined as 0.739. On to G28A A70U, for which the self-cleavage was found to be 0.203.

For the variant G29U A83U, the self-cleavage is 0.102. As for G6U A78C, the self-cleavage was 0.252.

Turning to G17C U46G, the self-cleavage worked out at 0.0923. Take C13U G40U: the self-cleavage is 0.117.

On to G31A G38A, for which the self-cleavage was determined as 0.14. Take G28C G59C: the self-cleavage is 0.212.

As to C44U G67U, the self-cleavage worked out at 0.499. As to C7A U69A, the self-cleavage is 0.449. With C18A U37G the figure was 0.185; with G6U C13U, 0.249; with U37C G38C, 0.237. Under G28C C49A stands 0.166; under A71C G76U, 0.91. Take G2C C13U: the self-cleavage was 0.153. Consider U20G C22A, for which the self-cleavage was found to be 0.185. G31C C66G: the self-cleavage amounted to 0.443. G34U: the self-cleavage amounted to 0.19. For U27A G82U, the self-cleavage was found to be 0.906. Under A16U G52C stands 0.696; under C62A U79G, 0.862; under A71C U72C, 0.185.

Regarding A42C C75A, the self-cleavage stood at 0.116. Under G28U C49U stands 0.0639. With C4G G50U the figure was 0.527; with C4U C13A, 0.122; with C26U C30G, 0.0941. With C64A A87U the figure was 0.71; with A56C C66A, 1.21; with C24U G39U, 0.111. As to A45U G53A, the self-cleavage was 0.997. Under U23G U79A stands 0.322; under U23A C64A, 0.814.

As to G39A A43U, the self-cleavage was found to be 0.0241. Consider U12C A70G, for which the self-cleavage is 0.692. For the variant A70G C84G, the self-cleavage was 0.475. Under U60C A78G stands 0.935; under C36G G54A, 0.0831; under G34U G38C, 0.194. As for U27G A87C, the self-cleavage was 0.869. As to G31A G68C, the self-cleavage is 0.518.

On to G52U G74A, for which the self-cleavage came to 0.402. With C32A G39A, the self-cleavage was 0.0563.
